Results reported in the supplement of paper PMC9233669.
Fewer inactive variants are shown than the library holds.

How the values were obtained:
biotinyl-Phe-oxazolone = test: self-aminoacylation, catalytic enhancement (BFO) (fold over background); higher = more active; k-Seq, kA / k0A0; sequences stand for … in GGGAAUGGAUCCACAUCUACGAAUUC…UUCACUGCAGACUUGACGAAGCUG
Outline: (§1)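 The uncatalyzed rate is the low-activity peak of a bimodal Gaussian fit, and catalytic enhancement is median kA divided by it. The kA values came from pseudo-first-order fits, with 1000 bootstraps, of per-sequence fraction reacted measured by streptavidin capture, triplicate qPCR and Illumina sequencing. Mutagenized RNA pools with a 21-nt variable region (0.43 μM) were reacted with each biotinyl-aminoacyl-oxazolone at 2–1250 μM in 50 μL HEPES/NaCl/KCl/MgCl2/CaCl2 buffer with 5% acetonitrile, pH 6.9–7.0, for 90 minutes at room temperature.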

biotinyl-Met-oxazolone = test: self-aminoacylation, catalytic enhancement (BMO) (fold over background); higher = more active; k-Seq, kA / k0A0; sequences stand for … in GGGAAUGGAUCCACAUCUACGAAUUC…UUCACUGCAGACUUGACGAAGCUG
Outline: as §1

biotinyl-Val-oxazolone = test: self-aminoacylation, catalytic enhancement (BVO) (fold over background); higher = more active; k-Seq, kA / k0A0; sequences stand for … in GGGAAUGGAUCCACAUCUACGAAUUC…UUCACUGCAGACUUGACGAAGCUG
Outline: as §1

biotinyl-Ile-oxazolone = test: self-aminoacylation, catalytic enhancement (BIO) (fold over background); higher = more active; k-Seq, kA / k0A0; sequences stand for … in GGGAAUGGAUCCACAUCUACGAAUUC…UUCACUGCAGACUUGACGAAGCUG
Outline: as §1

biotinyl-Trp-oxazolone = test: self-aminoacylation, catalytic enhancement (BWO) (fold over background); higher = more active; k-Seq, kA / k0A0; sequences stand for … in GGGAAUGGAUCCACAUCUACGAAUUC…UUCACUGCAGACUUGACGAAGCUG
Outline: as §1

biotinyl-Leu-oxazolone = test: self-aminoacylation, catalytic enhancement (BLO) (fold over background); higher = more active; k-Seq, kA / k0A0; sequences stand for … in GGGAAUGGAUCCACAUCUACGAAUUC…UUCACUGCAGACUUGACGAAGCUG
Outline: as §1

| Sequence | self-aminoacylation (biotinyl-Phe-oxazolone) | self-aminoacylation (biotinyl-Met-oxazolone) | self-aminoacylation (biotinyl-Val-oxazolone) | self-aminoacylation (biotinyl-Ile-oxazolone) | self-aminoacylation (biotinyl-Trp-oxazolone) | self-aminoacylation (biotinyl-Leu-oxazolone) |
| --- | --- | --- | --- | --- | --- | --- |
| CCCCACUUCAAGCAAUCGGAC [Fam1B.1 aminoacylation ribozyme variant] | 2.8 | 1.44 | 1.52 | 1.45 | 2.45 | 1.19 |
| AUGACCCUGGUAAUCGAGUGA [Fam2.1 aminoacylation ribozyme variant] | 23.9 | 5.08 | 2.8 | 2.7 | 6.37 | 5.39 |
| AUUACGUUGGUCAUCGAGUGA [Fam2.1 aminoacylation ribozyme variant] | 11.7 | 4.23 | 3.18 | 3.1 | 5.9 | 4.86 |
| CCACACUUCCAGCAAUCGGCC [Fam1B.1 aminoacylation ribozyme variant] | 3.34 | 2.08 | 4.01 | 3.06 | 4.06 | 2.42 |
| CUAAACUUCAAGCAAUCGGUC [Fam1B.1 aminoacylation ribozyme variant] | 33.1 | 0.876 | 1.03 | 0.956 | 15.1 | 1.26 |
| AUUAUCCUUGUCAUCGAGUGA [Fam2.1 aminoacylation ribozyme variant] | 25.2 | 6.66 | 3.57 | 3.49 | 8.67 | 6.7 |
| AUUACCGUGGUCAUCGCGUGA [Fam2.1 aminoacylation ribozyme variant] | 140 | 17.7 | 11 | 8.94 | 22.2 | 21.5 |
| AAGUUUGCUAUUAGUCGCAAA [Fam3.1 aminoacylation ribozyme variant] | 1.58 | 1.84 | 1.35 | 1.52 | 1.74 | 1.47 |
| GUUCACCUAGGUCAGCGGGUG [Fam2.2 aminoacylation ribozyme variant] | 26.1 | 4.02 | 3.23 | 2.92 | 4.42 | 4.21 |
| CUGCUUGAAACAAUCGGUCUG [Fam1A.1 aminoacylation ribozyme variant] | 0.928 | 0.842 | 0.959 | 0.9 | 1.07 | 0.867 |
| AUUAACCUAGGUCAUCGGGUU [Fam2.2 aminoacylation ribozyme variant] | 40.5 | 9.3 | 4.78 | 5.18 | 6.05 | 12.7 |
| CCACCCUUCAAGUAAUCGGUC [Fam1B.1 aminoacylation ribozyme variant] | 7.55 | 1.18 | 1.25 | 1.15 | 7.3 | 1.13 |
| AAGUUUCCUAAUAGACGCAAG [Fam3.1 aminoacylation ribozyme variant] | 1.32 | 0.632 | 0.805 | 0.82 | 0.895 | 0.671 |
| CCACACUUCAAGCACUCGAUC [Fam1B.1 aminoacylation ribozyme variant] | 0.872 | 0.43 | 0.713 | 0.604 | 0.436 | 0.546 |
| CCACACUUCAAGCAAACGGUU [Fam1B.1 aminoacylation ribozyme variant] | 1.41 | 1.25 | 1.59 | 1.32 | 0.973 | 1.34 |
| CCACACUUCAAGCAAACAGUC [Fam1B.1 aminoacylation ribozyme variant] | 1.09 | 0.609 | 0.757 | 0.816 | 0.375 | 0.674 |
| AUUACCCUGGUCAGCCAGUGA [Fam2.1 aminoacylation ribozyme variant] | 46.3 | 9.13 | 5.21 | 5.41 | 11 | 10.6 |
| AAGUUUGCUCAUAGUCUCAAG [Fam3.1 aminoacylation ribozyme variant] | 1.98 | 0.869 | 0.901 | 0.872 | 0.98 | 0.977 |
| CUAGUUCAAACAAUCGGUCUU [Fam1A.1 aminoacylation ribozyme variant] | 5.06 | 1.25 | 1.01 | 1.14 | 3.27 | 1.26 |
| AUUACCCUGGUAAUCCAGUGA [Fam2.1 aminoacylation ribozyme variant] | 51.9 | 8.47 | 4.36 | 4.07 | 10.7 | 8.77 |
| CUAUUUCAAACAAUCGGACUG [Fam1A.1 aminoacylation ribozyme variant] | 1.93 | 0.82 | 0.733 | 0.976 | 1.12 | 0.803 |
| UUUAGCCUGGUCAUCGAGUGA [Fam2.1 aminoacylation ribozyme variant] | 21.9 | 5.59 | 4.28 | 4.42 | 7 | 5.82 |
| AUUAACCUGGUCAUCCAGUGA [Fam2.1 aminoacylation ribozyme variant] | 18.6 | 4.16 | 2.56 | 2.38 | 5.64 | 4.45 |
| AUUACCCUGGCCAUCGAGUCA [Fam2.1 aminoacylation ribozyme variant] | 0.47 | 0.714 | 0.826 | 0.78 | 0.66 | 0.727 |
| AUGUUUGCUAAUAGUCGCAUG [Fam3.1 aminoacylation ribozyme variant] | 1.52 | 1.58 | 1.39 | 1.34 | 1.38 | 1.72 |
| GAGUUUGCUAAUAGUCGUAAG [Fam3.1 aminoacylation ribozyme variant] | 30.8 | 1.4 | 1.17 | 1.4 | 8.52 | 1.28 |

| Sequence | self-aminoacylation (biotinyl-Phe-oxazolone) | self-aminoacylation (biotinyl-Met-oxazolone) | self-aminoacylation (biotinyl-Val-oxazolone) | self-aminoacylation (biotinyl-Ile-oxazolone) | self-aminoacylation (biotinyl-Trp-oxazolone) | self-aminoacylation (biotinyl-Leu-oxazolone) |
| --- | --- | --- | --- | --- | --- | --- |
| UCUCACUUCAAGCAAUCGGUC [Fam1B.1 aminoacylation ribozyme variant] | 44.5 | 1.15 | 1.35 | 1.23 | 21.5 | 1.71 |
| AUUCCCCUAGGUCAUGGGGUG [Fam2.2 aminoacylation ribozyme variant] | 167 | 19 | 11.1 | 11.3 | 15.8 | 24.7 |
| AAGUUUGCAAGUAGUCGCAAG [Fam3.1 aminoacylation ribozyme variant] | 1.14 | 1.06 | 0.914 | 0.95 | 1.06 | 0.731 |
| AUGAGCCUGGUCAUCGAGUGA [Fam2.1 aminoacylation ribozyme variant] | 31.3 | 5.66 | 3.71 | 3.82 | 6.33 | 5.69 |
| AUUAACCUGGUCAUCUAGUGA [Fam2.1 aminoacylation ribozyme variant] | 52.4 | 9.41 | 4.53 | 4.57 | 11.1 | 9.7 |
| CUACUGCAAACAACCGGUCUG [Fam1A.1 aminoacylation ribozyme variant] | 2.5 | 0.762 | 0.836 | 1.02 | 0.804 | 0.953 |
| CCAAACUUCAAGCAUUCGGUC [Fam1B.1 aminoacylation ribozyme variant] | 1.96 | 1.83 | 1.86 | 2.1 | 1.75 | 1.84 |
| AUUACCCUGGUAAUCGGGUGA [Fam2.1 aminoacylation ribozyme variant] | 86.9 | 12.4 | 4.83 | 4.26 | 12.1 | 13.1 |
| AUUACCCGGGUCAUCGAGUGA [Fam2.1 aminoacylation ribozyme variant] | 44.9 | 6.91 | 3.85 | 3.57 | 7.86 | 7.1 |
| AACUUUGCUAAUAGGCGCAAG [Fam3.1 aminoacylation ribozyme variant] | 3.02 | 1.7 | 2.05 | 2.36 | 1.96 | 1.79 |
| AUCACACUGGUCAUCGAGUGA [Fam2.1 aminoacylation ribozyme variant] | 42.5 | 6.51 | 4.06 | 4.41 | 8.95 | 6.47 |
| AAGUUUGCUAAUAGUCGUCAG [Fam3.1 aminoacylation ribozyme variant] | 2.16 | 0.638 | 0.905 | 0.795 | 1.26 | 0.715 |
| AAUCACCUAGGUCAUCCGGUG [Fam2.2 aminoacylation ribozyme variant] | 50 | 5.22 | 4.15 | 4.59 | 6.07 | 6.61 |
| UAGUUUGCUUAUAGUCGCAAG [Fam3.1 aminoacylation ribozyme variant] | 2.08 | 1.84 | 1.54 | 1.53 | 1.81 | 1.59 |
| AAGUUUGCUCAUAGUCCCAAG [Fam3.1 aminoacylation ribozyme variant] | 1.29 | 0.856 | 1.06 | 0.902 | 0.793 | 0.902 |
| ACACACUUAAAGCAAUCGGUC [Fam1B.1 aminoacylation ribozyme variant] | 1.23 | 0.917 | 1.11 | 1.08 | 0.971 | 0.923 |
| AUUACCCUGCUGAUCGAGUGA [Fam2.1 aminoacylation ribozyme variant] | 10.4 | 2.68 | 1.67 | 1.93 | 2.77 | 2.87 |
| CAUACCCUGGUCAUCGAGUGA [Fam2.1 aminoacylation ribozyme variant] | 17.6 | 11.3 | 6.04 | 5.75 | 11.7 | 11.8 |
| CUACACCUCAAGCAAUCGGUC [Fam1B.1 aminoacylation ribozyme variant] | 2.14 | 0.869 | 0.976 | 1.01 | 1.41 | 0.8 |
| AUUACCUUGGGCAUCGAGUGA [Fam2.1 aminoacylation ribozyme variant] | 17.4 | 5.33 | 2.91 | 2.87 | 6.65 | 5.27 |
| CCACACCUCAAGCAGUCGGUC [Fam1B.1 aminoacylation ribozyme variant] | 0.725 | 1.02 | 1.6 | 1.34 | 1.02 | 1.47 |
| AAUACCCCGGUCAUCGAGUGA [Fam2.1 aminoacylation ribozyme variant] | 27.9 | 4.63 | 3.57 | 3.15 | 5.61 | 5.27 |
| AAGUCUGCUAAUAUUCGCAAG [Fam3.1 aminoacylation ribozyme variant] | 2.54 | 1.49 | 1.06 | 1.11 | 1.77 | 1.06 |
| CUACUACAAACAAUCGGUCAG [Fam1A.1 aminoacylation ribozyme variant] | 0.636 | 0.547 | 0.646 | 0.561 | 0.537 | 0.414 |
| AUUCACCUAGGUCACCAGGUG [Fam2.2 aminoacylation ribozyme variant] | 1.24 | 1.51 | 1.49 | 1.51 | 1.64 | 1.61 |
